Reference: patent publication US20240009285A1 (REGENERATIVE RESEARCH FOUNDATION, published 2024)

How the values were obtained:
[1] = molecular target: human α-synuclein protein (human, UniProt P37840 1-140); assay: surface plasmon resonance (SPR); no numbers given
GFP-Tau-(0N4R) = GFP-Tau-(0N4R) (human, UniProt P10636-6 1-383); assay: cell-based or functional assay
Sequence of GFP-Tau-(0N4R) (P10636 other isoform, or with tags, fused parts or gaps): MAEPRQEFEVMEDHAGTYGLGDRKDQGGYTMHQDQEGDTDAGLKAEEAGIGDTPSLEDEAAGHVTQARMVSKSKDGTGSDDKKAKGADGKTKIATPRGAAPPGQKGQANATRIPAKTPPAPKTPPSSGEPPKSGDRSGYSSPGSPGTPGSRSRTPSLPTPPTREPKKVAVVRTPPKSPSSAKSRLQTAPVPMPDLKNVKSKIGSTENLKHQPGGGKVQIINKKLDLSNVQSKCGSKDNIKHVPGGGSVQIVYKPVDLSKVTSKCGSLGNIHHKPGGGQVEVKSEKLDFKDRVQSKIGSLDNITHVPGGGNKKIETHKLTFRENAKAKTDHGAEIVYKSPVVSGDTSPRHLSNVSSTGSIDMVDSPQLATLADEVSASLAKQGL

| binding result [1] | reduction of total tau vs EV-CON (western blot) (GFP-Tau-(0N4R)) [%] | Binder |
| --- | --- | --- |
| binds | – | VHH-4C-N77D (VHH, Unfused nanobody as named in the SPR statement; also called VHH-N77D) VHH: VQLVESGGGGLVQPGGSLRLSCVTPGGIFSDYAMGWYRQAPGKQRELVADITVSDTTRYSDPVKGRFTISRDNAKDMVYLQMNSLKPEDAAIYTCNAQKWEDRYGSSERYDYWGQGTQVTVSS |
| – | ~40 | scFv-N-hPEST-D433A (scFv, V domains shown) VH: QVQLVESGGGLVKPGGSLRLSCAASGFTFSSYAMSWVRQAPGKGLEWVAAISGSGDNTYYADSVKGRFTISRDNSENTVHLQMAGLRAEDTALYFCAKDGPAVGNPGGYFDFWGRGTLVTVSS |

Continued, binder first:

| Binder | binding result [1] | reduction of total tau vs EV-CON (western blot) (GFP-Tau-(0N4R)) [%] |
| --- | --- | --- |
| scFv-V-hPEST-D433A (scFv, V domains shown) VH: QVQLVESGGGLVKPGGSLRLSCAASGFTFSSYAMSWVRQAPGKGLEWVAAISGSGDNTYYADSVKGRFTISRDNSENTVHLQMAGLRAEDTALYFCAKDGPEVGNPGGYFDFWGRGTLVTVSS | – | ~40 |
| scFv-N-hPEST-S445A (scFv, V domains shown) VH: QVQLVESGGGLVKPGGSLRLSCAASGFTFSSYAMSWVRQAPGKGLEWVAAISGSGDNTYYADSVKGRFTISRDNSENTVHLQMAGLRAEDTALYFCAKDGPAVGNPGGYFDFWGRGTLVTVSS | – | ~40 |
